Results on 78 sequences are retold here after the supplement of paper PMC10126150.

± gives the standard deviation of the averaged measurements.

In the data set the test system is ATP. In words: switch fluorescence ratio, 500 uM ATP over buffer (Cy3 cluster intensity, sum of 5 cycles each) (fold (ratio)); higher = stronger signal-on switching upon ATP binding; sequences stand for … in TCGTCGGCAGCGTCAGATGTGTATAAGAGACAGTTTTTTTTTTTTTTTTTTTTTTTTT…TC. The settings on record: aptamer strand: ATP DNA aptamer (quencher-CACCTGGGGGAGTATTGCGGAGGAAGG + anchor), 100 nM annealed; ATP concentration: 500 uM. In short, it runs like this:
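The fluorescence ratio divides summed target-cycle Cy3 intensity by summed buffer-cycle Cy3 intensity for each cluster and is averaged per switch-domain sequence. Cy3-labelled switching-strand clusters on a modified Illumina MiSeq flow-cell were annealed to 100 nM quencher-labelled ATP aptamer, then imaged in selection buffer and again after 15 min with 500 uM ATP at 22 °C. Five such cycles were run, with NaOH stripping and re-annealing between them, and clusters outside 100-1000 RFU were excluded.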
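Note: ATP exposure 15 min at 22 °C before imaging.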

Take TTTAGGGAGG: the switch fluorescence ratio came out at 0.974 ± 0.026.

In the case of TTTAGGGATA, the switch fluorescence ratio amounted to 1.09 ± 0.19.

TTTAGGGCGC: the switch fluorescence ratio was 1.05 ± 0.044.

On to TTTAGGGGAC, for which the switch fluorescence ratio worked out at 1 ± 0.012.

For TTTAGGGGGG, the switch fluorescence ratio was 1.01 ± 0.099.

Take TTTAGGGTG: the switch fluorescence ratio is 1.05 ± 0.061.

Consider TTTAGGGTTA, for which the switch fluorescence ratio was 1.01 ± 0.016.

Consider TTTAGGTTGC, for which the switch fluorescence ratio turned out to be 0.9817 ± 0.0056.

On to TTTAGTATGG, for which the switch fluorescence ratio is 1.02 ± 0.042.

Take TTTAGTATGT: the switch fluorescence ratio came to 1.013 ± 0.0025.

As for TTTAGTCACT, the switch fluorescence ratio turned out to be 1.03 ± 0.022.

In the case of TTTAGTCGGG, the switch fluorescence ratio came to 1.02 ± 0.046.

Regarding TTTAGTCTCA, the switch fluorescence ratio came out at 1.017 ± 0.0089.

Turning to TTTAGTGCGG, the switch fluorescence ratio turned out to be 0.973 ± 0.033.

Regarding TTTAGTGTCT, the switch fluorescence ratio was 0.983 ± 0.021.

Turning to TTTAGTGTTG, the switch fluorescence ratio is 0.957 ± 0.041.

Regarding TTTAGTGTTT, the switch fluorescence ratio is 1.004 ± 0.007.

As to TTTAGTTGAG, the switch fluorescence ratio worked out at 0.971 ± 0.025.

On to TTTAGTTGGT, for which the switch fluorescence ratio worked out at 1 ± 0.08.

Regarding TTTAGTTGTA, the switch fluorescence ratio amounted to 1.018 ± 0.0077.

As for TTTAGTTTCG, the switch fluorescence ratio turned out to be 1.02 ± 0.025.

TTTATAAGAT: the switch fluorescence ratio came to 1.01 ± 0.012.

Turning to TTTATAATTG, the switch fluorescence ratio turned out to be 1.03 ± 0.028.

Consider TTTATAATTT, for which the switch fluorescence ratio is 0.981 ± 0.018.

Take TTTATACCGC: the switch fluorescence ratio is 1.13 ± 0.071.

For TTTATACTCT, the switch fluorescence ratio was determined as 1.08 ± 0.026.

With TTTATAGAGC, the switch fluorescence ratio was determined as 1.03 ± 0.054.

For the sequence TTTATAGCGT, the switch fluorescence ratio was 0.974 ± 0.038.

For TTTATAGGTC, the switch fluorescence ratio is 0.994 ± 0.038.

With TTTATATGGC, the switch fluorescence ratio was 1.03 ± 0.08.

Consider TTTATCACAG, for which the switch fluorescence ratio was 1.014 ± 0.0041.

For TTTATCAGTG, the switch fluorescence ratio turned out to be 0.987 ± 0.031.

Take TTTATCCCGA: the switch fluorescence ratio is 1.03 ± 0.048.

In the case of TTTATCCTAG, the switch fluorescence ratio is 0.976 ± 0.003.

For TTTATCGCAG, the switch fluorescence ratio came out at 0.994 ± 0.039.

Consider TTTATCGTCT, for which the switch fluorescence ratio came to 1.12 ± 0.068.

As for TTTATGAAAA, the switch fluorescence ratio amounted to 1.025 ± 0.0066.

On to TTTATGAGAC, for which the switch fluorescence ratio amounted to 1.02 ± 0.065.

On to TTTATGAGG, for which the switch fluorescence ratio came to 0.997 ± 0.019.

With TTTATGAGT, the switch fluorescence ratio was found to be 0.987 ± 0.022.

As for TTTATGATCG, the switch fluorescence ratio turned out to be 0.977 ± 0.039.

On to TTTATGCTGC, for which the switch fluorescence ratio was determined as 1.05 ± 0.038.

Turning to TTTATGGATT, the switch fluorescence ratio came out at 1.006 ± 0.01.

Take TTTATGGGAA: the switch fluorescence ratio stood at 1.01 ± 0.026.

TTTATGGGGA: the switch fluorescence ratio stood at 1 ± 0.02.

As for TTTATGGTTC, the switch fluorescence ratio was 0.992 ± 0.01.

Consider TTTATGTCGG, for which the switch fluorescence ratio stood at 1.004 ± 0.0091.

As to TTTATGTCTA, the switch fluorescence ratio amounted to 1.02 ± 0.024.

Take TTTATGTGTT: the switch fluorescence ratio turned out to be 0.984 ± 0.021.

In the case of TTTATGTTTT, the switch fluorescence ratio was 0.965 ± 0.041.

Regarding TTTATTATGA, the switch fluorescence ratio is 1.01 ± 0.026.

Turning to TTTATTCGAA, the switch fluorescence ratio worked out at 0.99821 ± 0.00092.

In the case of TTTATTCTTT, the switch fluorescence ratio was determined as 1 ± 0.021.

For the sequence TTTATTGACT, the switch fluorescence ratio was determined as 1.03 ± 0.013.

In the case of TTTATTGCGG, the switch fluorescence ratio was 1.01 ± 0.043.

For the sequence TTTATTGGAC, the switch fluorescence ratio worked out at 1.01 ± 0.078.

TTTATTGGCG: the switch fluorescence ratio is 1.01 ± 0.035.

With TTTATTGTCC, the switch fluorescence ratio amounted to 0.975 ± 0.034.

Regarding TTTATTGTT, the switch fluorescence ratio amounted to 0.99 ± 0.018.

In the case of TTTATTTATA, the switch fluorescence ratio is 1.01 ± 0.025.

As to TTTATTTCTA, the switch fluorescence ratio was 0.981 ± 0.013.

TTTATTTGAA: the switch fluorescence ratio is 1.01 ± 0.025.

Take TTTATTTGGT: the switch fluorescence ratio is 1.03 ± 0.041.

Turning to TTTATTTTGT, the switch fluorescence ratio worked out at 1 ± 0.038.

TTTATTTTTC: the switch fluorescence ratio came to 1.04 ± 0.046.

Turning to TTTCAAAACA, the switch fluorescence ratio was determined as 1.0474 ± 0.00015.

As for TTTCAAATTC, the switch fluorescence ratio was determined as 0.981 ± 0.026.

TTTCAAGTGG: the switch fluorescence ratio is 1.014 ± 0.0096.

Turning to TTTCACACGG, the switch fluorescence ratio was determined as 1.04 ± 0.066.

Turning to TTTCACCTTT, the switch fluorescence ratio was determined as 1.02 ± 0.047.

For the sequence TTTCAGAAAG, the switch fluorescence ratio stood at 0.986 ± 0.011.

Consider TTTCAGACAT, for which the switch fluorescence ratio was found to be 1.016 ± 0.008.

As for TTTCAGAGAA, the switch fluorescence ratio was 1.04 ± 0.049.

As for TTTCAGAGGG, the switch fluorescence ratio came to 0.992 ± 0.011.

Take TTTCAGCCGG: the switch fluorescence ratio was 1.04 ± 0.034.

In the case of TTTCAGGGTT, the switch fluorescence ratio came out at 1.03 ± 0.072.

TTTCAGTCAT: the switch fluorescence ratio turned out to be 0.978 ± 0.015.

In the case of TTTCAGTTTT, the switch fluorescence ratio amounted to 1.1 ± 0.22.
